T1: human IL4 (IL004, Millipore) (human, UniProt P05112 25-153)
T1 construct: Bought protein, used as analyte in SPR; also called interleukin IL4
T1 sequence (looked up): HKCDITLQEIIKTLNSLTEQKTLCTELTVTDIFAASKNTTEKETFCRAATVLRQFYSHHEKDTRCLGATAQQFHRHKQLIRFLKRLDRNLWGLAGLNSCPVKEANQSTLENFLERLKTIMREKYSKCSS

B1: protein variant (10), CODV-Split CH2 tetravalent bispecific antibody (bispecific antibody, human IgG4 S228P, kappa)
chain 1: DIVLTQSPASLAVSLGQRATISCRASESVDSYGQSYMHWYQQKAGQPPKLLIYLASNLESGVPARFSGSGSRTDFTLTIDPVQAEDAATYYCQQNAEDSRTFGGGTKLEIKGQPKAAPSDIQMTQSPASLSVSVGDTITLTCHASQNIDVWLSWFQQKPGNIPKLLIYKASNLHTGVPSRFSGSGSGTGFTLTISSLQPEDIATYYCQQAHSYPFTFGGGTKLEIKTKGPSVFRTVAAPSVFIFPPSDEQLKSGTASVVCLLNNFYPREAKVQWKVDNALQSGNSQESVTEQDSKDSTYSLSSTLTLSKADYEKHKVYACEVTHQGLSSPVTKSFNRGECGGPSVFLFPPKPKDTLMISRTPEVTCVVVDVSHEDPEVKFNWYVDGVEVHN
chain 2: not shown
notes: variant (3) fused to an IgG Fc-domain
B2: protein variant (9), DVD-Split CH2 tetravalent bispecific antibody (bispecific antibody, human IgG4 S228P, kappa)
chain 1: DIVLTQSPASLAVSLGQRATISCRASESVDSYGQSYMHWYQQKAGQPPKLLIYLASNLESGVPARFSGSGSRTDFTLTIDPVQAEDAATYYCQQNAEDSRTFGGGTKLEIKGGGGSGGGGSDIQMTQSPASLSVSVGDTITLTCHASQNIDVWLSWFQQKPGNIPKLLIYKASNLHTGVPSRFSGSGSGTGFTLTISSLQPEDIATYYCQQAHSYPFTFGGGTKLEIKRTVAAPSVFIFPPSDEQLKSGTASVVCLLNNFYPREAKVQWKVDNALQSGNSQESVTEQDSKDSTYSLSSTLTLSKADYEKHKVYACEVTHQGLSSPVTKSFNRGECGGPSVFLFPPKPKDTLMISRTPEVTCVVVDVSHEDPEVKFNWYVDGVEVHN
chain 2: not shown
notes: variant (2) fused to an IgG Fc-domain
B3: protein variant (8), Diabody Split CH2 tetravalent bispecific antibody (bispecific antibody, human IgG4 S228P)
chain 1: DIVLTQSPASLAVSLGQRATISCRASESVDSYGQSYMHWYQQKAGQPPKLLIYLASNLESGVPARFSGSGSRTDFTLTIDPVQAEDAATYYCQQNAEDSRTFGGGTKLEIKGGGSGGGGQVQLQQSGPELVKPGASVKISCKASGYSFTSYWIHWIKQRPGQGLEWIGMIDPSDGETRLNQRFQGRATLTVDESTSTAYMQLRSPTSEDSAVYYCTRLKEYGNYDSFYFDVWGAGTLVTVSSGGPSVFLFPPKPKDTLMISRTPEVTCVVVDVSHEDPEVKFNWYVDGVEVHN
chain 2: not shown
notes: variant (1) fused to an IgG Fc-domain
B4: protein variant (6), Diabody Split CH2 (included) ("Splite") (bispecific antibody)
chain 1: DIVLTQSPASLAVSLGQRATISCRASESVDSYGQSYMHWYQQKAGQPPKLLIYLASNLESGVPARFSGSGSRTDFTLTIDPVQAEDAATYYCQQNAEDSRTFGGGTKLEIKGGPSVFLFPPKPKDTLMISRTPEVTCVVVDVSHEDPEVKFNWYVDGVEVHNGGGGSGGGGSGGGGSDIQMTQSPASLSVSVGDTITLTCHASQNIDVWLSWFQQKPGNIPKLLIYKASNLHTGVPSRFSGSGSGTGFTLTISSLQPEDIATYYCQQAHSYPFTFGGGTKLEIK
chain 2: EVQLKESGPGLVAPGGSLSITCTVSGFSLTDSSINWVRQPPGKGLEWLGMIWGDGRIDYADALKSRLSISKDSSKSQVFLEMTSLRTDDTATYYCARDGYFPYAMDFWGQGTSVTVSSGGGAKTKPREEQYNSTYRVVSVLTVLHQDWLNGKEYKCKVSNKALPAPIEKTISKAKGQPREQVQLQQSGPELVKPGASVKISCKASGYSFTSYWIHWIKQRPGQGLEWIGMIDPSDGETRLNQRFQGRATLTVDESTSTAYMQLRSPTSEDSAVYYCTRLKEYGNYDSFYFDVWGAGTLVTVSSHHHHHH
notes: Splite diabody with other linkers than variant (4); also called splite diabody
B5: protein variant (7), Diabody Split CH2 (included) ("Splite") (bispecific antibody)
chain 1: DIVLTQSPASLAVSLGQRATISCRASESVDSYGQSYMHWYQQKAGQPPKLLIYLASNLESGVPARFSGSGSRTDFTLTIDPVQAEDAATYYCQQNAEDSRTFGGGTKLEIKGGPSVFLFPPKPKDTLMISRTPEVTCVVVDVSHEDPEVKFNWYVDGVEVHNDIQMTQSPASLSVSVGDTITLTCHASQNIDVWLSWFQQKPGNIPKLLIYKASNLHTGVPSRFSGSGSGTGFTLTISSLQPEDIATYYCQQAHSYPFTFGGGTKLEIK
chain 2: EVQLKESGPGLVAPGGSLSITCTVSGFSLTDSSINWVRQPPGKGLEWLGMIWGDGRIDYADALKSRLSISKDSSKSQVFLEMTSLRTDDTATYYCARDGYFPYAMDFWGQGTSVTVSSGGGGSGGGGSGGGGSAKTKPREEQYNSTYRVVSVLTVLHQDWLNGKEYKCKVSNKALPAPIEKTISKAKGQPREQVQLQQSGPELVKPGASVKISCKASGYSFTSYWIHWIKQRPGQGLEWIGMIDPSDGETRLNQRFQGRATLTVDESTSTAYMQLRSPTSEDSAVYYCTRLKEYGNYDSFYFDVWGAGTLVTVSSHHHHHH
notes: as for B4
B6: protein variant (5), Diabody Split CH2 (included) ("Splite") (bispecific antibody)
chain 1: B5 chain 1
chain 2: B4 chain 2
notes: as for B4
B7: protein variant (4), Diabody Split CH2 (included) ("Splite") (bispecific antibody, IgG1)
chain 1: B4 chain 1
chain 2: B5 chain 2
notes: Split IgG1 CH2 domain inserted between the variable domains; also called splite diabody
B8: protein variant (1), Diabody-added Split CH2 (diabody split CH2, anti-IL4/anti-IL13) (bispecific antibody)
chain 1: B3 chain 1
chain 2: DIQMTQSPASLSVSVGDTITLTCHASQNIDVWLSWFQQKPGNIPKLLIYKASNLHTGVPSRFSGSGSGTGFTLTISSLQPEDIATYYCQQAHSYPFTFGGGTKLEIKGGGSGGGGEVQLKESGPGLVAPGGSLSITCTVSGFSLTDSSINWVRQPPGKGLEWLGMIWGDGRIDYADALKSRLSISKDSSKSQVFLEMTSLRTDDTATYYCARDGYFPYAMDFWGQGTSVTVSSGGGGSGGGGSAKTKPREEQYNSTYRVVSVLTVLHQDWLNGKEYKCKVSNKALPAPIEKTISKAKGQPREHHHHHH
notes: Two chains joined by the disulfide bond of the reassembled IgG1 split CH2 domain

Biological target: T1, human IL4 (IL004, Millipore)
Experiment: SPR (Biacore), variant captured with human antibody capture kit, IL4 as analyte
Description: (§1) Binding of antigens to the antibody constructs was measured using surface plasmon resonance (SPR) on a BIAcore 3000 instrument (GE Healthcare) with HBS-EP buffer (GE Healthcare). As antigens human IL4 (IL004, Millipore) and human IL13 (IL012, Millipore) were used. The capture antibody (human antibody capture kit, His capture kit, Fab capture kit, GE Life Sciences) was immobilized via primary amine groups (11000 RU) on a research grade CMS chip (GE Life Sciences) using standard procedures. […] The antigens human IL4 and human IL13 were used as analytes and injected for 240 sec with a dissociation time of 300 sec at a flow rate of 30 μL/min. IL4 and IL13 were used in a dilution series of 0.1 nM to 3 nM and 0.8 nM to 25 nM, respectively. Chip surfaces were regenerated with 2 min injects of the regeneration buffer provided with the capture kit. Sensorgrams were double referenced with a blank chip surface and HBS-EP buffer blanks. Recombinant human neonatal Fc-receptor (FcRn) protein was immobilized via primary amine groups (200 RU) in the sample flow cell compartment of a research grade CMS chip (GE Life Sciences) using standard procedures. The reference flow cell compartment was activated and deactivated without FcRn immobilization to generate a blank chip surface. For the analysis an assay buffer with pH 6.0 was used (150 mM NaCl, 20 mM Na-phosphate, 0.05% surfactant P20, pH6.0). The antibody was used as analyte at 800 nM dilution in assay buffer and injected over reference and sample flow cells for 240 sec with a dissociation time of 300 sec at a flow rate of 30 μL/min. Chip surfaces were regenerated with 2 min injects of HBS-EP buffer at 30 μl/min. Sensorgrams were double referenced with a the blank chip surface and HBS-EP buffer blanks. All data analysis was done using the BIAevaluation software v4.1.

Row | Binder | Kd | koff | kon
1 | B1 | 0.222 pM | 0.000204 s⁻¹ | 9.19e+08 M⁻¹ s⁻¹
2 | B2 | 6.09 pM | 0.000108 s⁻¹ | 1.77e+07 M⁻¹ s⁻¹
3 | B3 | 1.43 pM | 0.000135 s⁻¹ | 9.49e+07 M⁻¹ s⁻¹

Biological target: T1, human IL4 (IL004, Millipore)
Experiment: SPR (Biacore 3000), construct captured, IL4 as analyte; summary table
Description: as §1

Row | Binder | Kd
4 | B4 | 0.0878 nM
5 | B5 | 0.0685 nM
6 | B6 | 0.0403 nM
7 | B7 | 0.0648 nM
8 | B1 | 0.000222 nM
9 | B2 | 0.00609 nM
10 | B3 | 0.00143 nM
11 | B8 | 0.016 nM

Biological target: T1, human IL4 (IL004, Millipore)
Experiment: SPR (Biacore), variant captured with His-capture kit, IL4 as analyte
Description: as §1

Row | Binder | Ka | Kd | koff | kon
12 | B4 | 1.14e+10 M⁻¹ | 0.0878 nM | 0.000261 s⁻¹ | 2.97e+06 M⁻¹ s⁻¹
13 | B5 | 1.46e+10 M⁻¹ | 0.0685 nM | 0.000232 s⁻¹ | 3.38e+06 M⁻¹ s⁻¹
14 | B6 |  | 0.0403 nM | 0.000165 s⁻¹ | 4.1e+06 M⁻¹ s⁻¹
15 | B7 |  | 0.0648 nM | 0.000224 s⁻¹ | 3.46e+06 M⁻¹ s⁻¹
16 | B8 | 6.24e+10 M⁻¹ | 0.016 nM | 0.00117 s⁻¹ | 7.32e+07 M⁻¹ s⁻¹

— patent US20230103563A1 (Sanofi, published 2023)
